The values below come from PMC4692385, “Identification of Thyroid Hormones and Functional Characterization of Thyroid Hormone Receptor in the Pacific Oyster Crassostrea gigas Provide Insight into Evolution of the Thyroid Hormone System”.

B1: CgDR5 (dsDNA)
DNA 1: GTCCGTGATCACGGGTAGGTCAAACTG
DNA 2: CAGTTTGACCTACCCGTGATCACGGAC
B2: DR5 (dsDNA)
DNA 1: CCGTAAGGTCACCAGGAGGTCACTCG
DNA 2: CGAGTGACCTCCTGGTGACCTTACGG
B3: DR0 (dsDNA)
DNA 1: CCGTAAGGTCAAGGTCACTCG
DNA 2: CGAGTGACCTTGACCTTACGG
B4: DR4 (dsDNA)
DNA 1: CCGTAAGGTCACAGGAGGTCACTCG
DNA 2: CGAGTGACCTCCTGTGACCTTACGG
B5: DR2 (dsDNA)
DNA 1: CCGTAAGGTCACAAGGTCACTCG
DNA 2: CGAGTGACCTTGTGACCTTACGG
B6: DR1 (dsDNA)
DNA 1: CCGTAAGGTCACAGGTCACTCG
DNA 2: CGAGTGACCTGTGACCTTACGG
B7: DR3 (dsDNA)
DNA 1: CCGTAAGGTCACAGAGGTCACTCG
DNA 2: CGAGTGACCTCTGTGACCTTACGG

Chain of rCgTR (A0A0F6V015 entry or part of it): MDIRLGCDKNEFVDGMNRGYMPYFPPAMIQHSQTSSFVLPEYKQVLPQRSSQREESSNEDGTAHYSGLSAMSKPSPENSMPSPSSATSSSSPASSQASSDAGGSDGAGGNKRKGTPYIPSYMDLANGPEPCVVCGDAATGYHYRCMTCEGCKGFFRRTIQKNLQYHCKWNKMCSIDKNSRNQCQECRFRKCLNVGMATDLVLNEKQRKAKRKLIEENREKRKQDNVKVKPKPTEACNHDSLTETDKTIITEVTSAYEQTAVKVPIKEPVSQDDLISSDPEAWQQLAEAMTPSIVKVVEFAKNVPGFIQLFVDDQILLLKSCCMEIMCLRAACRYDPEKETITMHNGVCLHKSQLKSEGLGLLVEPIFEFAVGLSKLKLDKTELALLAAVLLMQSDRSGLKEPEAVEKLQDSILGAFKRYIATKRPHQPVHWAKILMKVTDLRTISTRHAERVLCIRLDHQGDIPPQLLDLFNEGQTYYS
Chain of rCgTR1-240 (A0A0F6V015 entry or part of it): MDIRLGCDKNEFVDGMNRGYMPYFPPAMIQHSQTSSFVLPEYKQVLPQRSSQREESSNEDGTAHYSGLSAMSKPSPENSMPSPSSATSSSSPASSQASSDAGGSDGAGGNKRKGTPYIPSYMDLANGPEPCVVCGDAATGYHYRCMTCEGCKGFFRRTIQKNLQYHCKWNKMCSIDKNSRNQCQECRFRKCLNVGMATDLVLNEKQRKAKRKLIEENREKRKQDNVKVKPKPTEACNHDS

One series addresses rCgTR (Crassostrea gigas, UniProt A0A0F6V015 1-479). The series is described as follows: EMSA; no ligand; LightShift Chemiluminescent EMSA kit (Pierce), manufacturer's instructions; buffer, salt, pH and temperature not stated; 100-fold cold probe competition; anti-His supershift. As to conditions: protein: recombinant, tags: pET30a, label: biotin, blunt.
For B1, the binding result was “binds”.

Regarding B2, the binding result is “binds”.

As to B3, the binding result is given as “binds”.

Regarding B4, the binding result is “binds”.

Take B5: the binding result is recorded as “binds”.

For the molecule B6, the binding result is on record as “binds”.

For the molecule B7, the binding result is “binds”.

The next series has as its target rCgTR1-240 (Crassostrea gigas, UniProt A0A0F6V015 1-240). The series is described as follows: EMSA; no ligand; homodimer and monomer bands; LightShift Chemiluminescent EMSA kit (Pierce), manufacturer's instructions; buffer, salt, pH and temperature not stated; 100-fold cold probe competition; anti-His supershift. The conditions noted are these: protein: recombinant, tags: pET30a, label: biotin, blunt.
Regarding B5, the binding result is listed as “binds”.
